# Data from article PMC3355152, “Crystal Structures of Lsm3, Lsm4 and Lsm5/6/7 from Schizosaccharomyces pombe”.
# T1: ScLsm3 (Saccharomyces cerevisiae, UniProt P57743 1-89)
# T1 sequence: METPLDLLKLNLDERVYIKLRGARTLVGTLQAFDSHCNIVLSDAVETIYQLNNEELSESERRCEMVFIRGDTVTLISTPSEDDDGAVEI
# How the values were obtained:
# [1] = biological target: T1, ScLsm3; assay: SPR; 1 uM protein; FA: 20 mM Hepes pH 7.5, 100 mM NaCl, 25 C, 0.1 uM RNA; SPR (Biacore 3000): 20 mM Hepes pH 7.5, 100 mM NaCl, 25 C, 1 uM protein; conditions: protein: recombinant; tags: His6 removed by PreScission; chain copies: 8; label: 5' biotin; single strand
# [2] = biological target: SpLsm2 (of SpLsm2/3);SpLsm3 (of SpLsm2/3) (Schizosaccharomyces …, UniProt O94408;Q9Y7M4 1-96;1-93, |); assay: fluorescence anisotropy; FA: 20 mM Hepes pH 7.5, 100 mM NaCl, 25 C, 0.1 uM RNA; SPR (Biacore 3000): 20 mM Hepes pH 7.5, 100 mM NaCl, 25 C, 1 uM protein; conditions: protein: recombinant;recombinant; tags: N-terminal His6;none; label: 5' 6-FAM; single strand
# [3] = biological target: SpLsm5;SpLsm6;SpLsm7 (Schizosaccharomyces …, UniProt O42978;Q9UUI1;O74499 1-80;1-75;1-113, ||); assay: as above; conditions: protein: recombinant;recombinant;recombinant; tags: N-terminal His6;none;; chain copies: 2;2;2; label: 5' 6-FAM; single strand
# Sequence of SpLsm5;SpLsm6;SpLsm7 (O42978 whole entry, chain 1 of 3): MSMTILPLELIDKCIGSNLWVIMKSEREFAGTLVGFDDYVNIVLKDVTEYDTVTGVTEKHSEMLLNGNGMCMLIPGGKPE
# Sequence of SpLsm5;SpLsm6;SpLsm7 (Q9UUI1 whole entry, chain 2 of 3): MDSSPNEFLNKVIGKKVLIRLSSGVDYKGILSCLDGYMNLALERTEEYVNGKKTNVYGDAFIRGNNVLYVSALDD
# Sequence of SpLsm5;SpLsm6;SpLsm7 (O74499 whole entry, chain 3 of 3): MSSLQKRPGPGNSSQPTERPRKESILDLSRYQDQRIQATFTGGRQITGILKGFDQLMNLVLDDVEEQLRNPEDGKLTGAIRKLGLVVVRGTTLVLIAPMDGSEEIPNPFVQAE
# Sequence of SpLsm2 (of SpLsm2/3);SpLsm3 (of SpLsm2/3) (O94408 whole entry, chain 1 of 2): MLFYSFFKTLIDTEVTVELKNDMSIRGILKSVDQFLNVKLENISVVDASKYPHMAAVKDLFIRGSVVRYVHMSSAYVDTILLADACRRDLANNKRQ
# Sequence of SpLsm2 (of SpLsm2/3);SpLsm3 (of SpLsm2/3) (Q9Y7M4 whole entry, chain 2 of 2): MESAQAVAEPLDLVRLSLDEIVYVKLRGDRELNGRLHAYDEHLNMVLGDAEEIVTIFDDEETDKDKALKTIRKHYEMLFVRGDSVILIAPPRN
Binder,binding result [1],Kd [2],Kd [3]
UUUUUUUUUUUUUUU (ssRNA) [U15 (biotin)],no binding,–,–
UUUUUUUUUUUUUUU (ssRNA) [U15 (FAM)],–,4 ± 0.5 µM,52.5 ± 10 µM
